Test results published in patent US11180762B2, “Methods and compositions for the treatment of cancer” (CHILDREN'S MEDICAL CENTER CORPORATION, priority 2014, dated 2021).
Entries after “also recorded” stand apart in the source; their conditions may differ.

Key:
basal-A TNBCs = experiment: Bortezomib on TNBC cell lines in vitro; format: cell-based, human
basal-A TNBC tumors = details: mouse, in vivo
Source text: We next tested whether proteasome inhibition inhibited the growth of basal-like TNBC tumors in mice.

breast cancer cell lines [1] = experiment: Colony formation assay; format: cell-based, human; details: AsiC 4 uM, paclitaxel 100 nM
Description: (§1) For colony formation assay, 1,000 viable cells were treated for 6 h in round bottom 96-well plates and then transferred to 10-cm plates in serum-containing medium. Medium was replaced every 3 d. After 8-14 d, cells were fixed in methanol (−20 C) and stained with crystal violet. For sphere formation assay, 1,000/ml viable cells were treated for 6 h in round bottom 96-well plates and then cultured in suspension in serum-free DMEM/F12 1:1 (Invitrogen), supplemented with EGF (20 ng/ml, BD Biosciences), B27 (1:50, Invitrogen), 0.4% bovine serum albumin (Sigma) and 4 μg/ml insulin (Sigma). Spheres were counted after 1 or 2 weeks.

breast cancer cell lines [2] = experiment: Sphere (mammosphere) formation assay; format: cell-based, human
Description: as §1

AKT1 = AKT1 mRNA and protein knockdown in breast cancer cell lines; format: cell-based, human; parameters: AKT1 protein silencing by flow cytometry: dose or concentration left out as unconfirmed; details: for AKT1 mRNA and protein knockdown across cell lines: basal-A, luminal, basal-B lines, fibroblasts
Description: (§2) For uptake and silencing treatment, cells were plated at low density (10,000 cells/well in 96-well plates) and treated immediately. All AsiC and siRNA treatments were performed in either OptiMEM or WIT medium. Cell viability was assessed by CellTiter-Glo (Promega) or by Trypan-Blue staining in 96-well plates.
For flow cytometry, cells were stained as previously described (Yu, F. et al (2007). let-7 Regulates Self Renewal and Tumorigenicity of Breast Cancer Cells. Cell 131, 1109-1123. ), briefly, direct immunostaining of EpCAM and AKT1 was performed using 1:50 dilutions of hAb for 30-60 minutes at 4° C. (BioLegend/BD). Cells were stained in PBS containing 0.5% FCS, 1 mM EDTA, and 25 mM HEPES. Samples were washed twice in the same buffer. Data was acquired using FACS-Canto II (BD Biosciences). Analyses were performed in triplicate and 10,000 gated events/sample were counted. All data analysis was performed using FlowJo (Treestar Inc.).
qRT-PCR analysis was performed as described (Petrocca, F., et al. (2008). E2F1-regulated microRNAs impair TGFbeta-dependent cell-cycle arrest and apoptosis in gastric cancer. Cancer Cell 13, 272-286). Briefly, total RNA was extracted with Trizol (Invitrogen) and cDNA prepared from 1000 ng total RNA using Thermoscript RT kit (Invitrogen) as per the […] (Applied Biosystems) and a BioRad C1000 Thermal Cycler (Biorad). Relative CT values were normalized to GAPDH and converted to a linear scale.

[3] = test system: basal-A, luminal and basal-B breast cancer cell lines; experiment: Cell proliferation/viability by CellTiter-Glo in 10 breast cancer cell lines; format: cell-based, human
Source text: To explore whether EpCAM-AsiCs could be used as anti-tumor agents in breast cancer, we examined by CellTiterGlo assay the effect of AsiCs directed against PLK1, a kinase required for mitosis, on survival of 10 breast cancer cell lines that included 5 basal-A TNBCs, 2 luminal cell lines, and 3 basal-B TNBCs. […] The anti-proliferative effect strongly correlated with EpCAM expression (FIG. 2B). The reduction in viable EpCAM+ cells after knockdown was due to induction of apoptosis, assessed by annexin V-propidium iodide staining and caspase activation (data not shown). To determine whether ligation of the EpCAM aptamer contributed to the anti-proliferative effect of the EpCAM-AsiC, we compared survival of cells that were treated with the PLK1 EpCAM-AsiC with cells treated with the aptamer on its own (FIG. 2C). […] Thus the PLK1 EpCAM-AsiC asserts its specific anti-tumor effect on EpCAM+ breast cancer cells by gene knockdown.
as §2

MB468-luc tumors = experiment: Tumor inhibition, EpCAM+ MB468-luc xenograft; format: in vivo, nude mice; details: 5 mg/kg sc every 3 d (72 h) for 2 wks
Description: (§3) For tumor inhibition studies, MB468-luc (5×10^6) and MB231-luc-mCherry (5×10^5) cells trypsinized with Tryple Express (Invitrogen), resuspended in a 1:1 WIT-Matrigel solution and injected subcutaneously in the flank of 8-week old female Nu/J mice (Stock #002019, Jackson Laboratories). Tumors size was analyzed daily using the IVIS Spectra, after 5 days tumors were clearly visible. […] Mice were treated every 72 h for 14 days.

Argonaute (AGO) = experiment: PLK1 siRNA association with Argonaute (pan-AGO immunoprecipitation, qRT-PCR); format: cell-based, human; details: MDA-MB-468 cells treated 2 days
Source text: MB-468 cells, treated with PLK1 EPCAM-AsiC or siRNA for 2 days, were lysed, and cell lysates were immunoprecipitated with pan-AGO antibody or IgG isotype control. The amount of PLK1 siRNA in the immunoprecipitates was quantified by Taqman qRT-PCR, presented as log2 mean with SEM, relative to miR-16. **, P<0.01 by Student's t-test relative to siRNA-treated cells. ND, not detectable. […] This is likely because most RNAs that are taken up by cells are not released from endosomes to the cytosol (A. Wittrup et al., Visualizing lipid-formulated siRNA release from endosomes and target gene knockdown. Nature Biotechnology 2015, in press).
Uptake was clearly detected at 22 hr, but increased greatly after 43 hr. To test whether EpCAM-AsiCs are specifically taken up by EpCAM bright cell lines, the 3′ end of the antisense strand of the AsiC was fluorescently labeled. […] Previous studies have shown that AsiCs are processed within cells by Dicer to release the siRNA from the aptamer (10, 12, 15).

[4] = test system: eGFP expression in BPLER and BPE cells; experiment: eGFP knockdown in GFP-expressing BPLER and BPE cells; format: cell-based, human; details: AsiC 4 μM without lipid, siRNA 100 nM with Dharmafect, 72 hours
Description: FIG. 21A depicts the design of EpCAM-AsiC, containing an EpCAM aptamer and a PLK1 siRNA (sense strand disclosed as SEQ ID NO: 1 and antisense strand disclosed as SEQ ID NO: 2). […] EpCAM-AsiC targeting GFP was Alexa647 or Cy3 labeled at the 3′ end of the antisense siRNA strand and incubated with BPLER and BPE cells. Uptake was assessed 24 hours later by flow cytometry (FIG. 21C). Data are representative of 3 independent experiments. Cy3 and Alexa647-labeled EpCAM-AsiC was taken up by MB468 and BPLER (EpCAM+ cells) respectively and not by BPE (EpCAM−). MFI of each peak is shown (mock, gray). FIG. 21D depicts graphs of experiments in which, to test for gene silencing, BPLER and BPE were treated with EpCAM-AsiC targeting GFP (4 μM) and compared to Transfection controls using Dharmafect and GFP-siRNA (100 nM). Knockdown was assessed by flow cytometry 72 hours after incubation. Controls were mock and Dhrmafect only treatment (lipid). (n=4).
as §2
Cells were transfected with Dharmafect I per the manufacturer's protocol. See FIG. 9 for all siRNA sequences.

MB468-luc cells = experiment: Tumor initiation by ex vivo treated EpCAM+ cells in nude mice; details: cells treated ex vivo 24 h/overnight, then implanted; imaged 20 days; listed as EpCAM-AsiC targeting GFP
Description: For tumor initiation studies 8-week old female Nu/J mice (Stock #002019, Jackson Laboratories) were injected subcutaneously with MB468-luc (5×10^6) cells pretreated for 24 h with EpCAM-AsiC-GFP, EpCAM-AsiC-PLK1 or untreated. Cells were trypsinized with Tryple Express (Invitrogen), resuspended in WIT media and injected subcutaneously in the flank. Following intraperitoneal injection of 150 mg/kg D-luciferin (Caliper Life Sciences) luminescent images of the whole body were taken every 5 days for a total of 20 days using the IVIS Spectra system (Caliper Life Sciences).

MB231-luc-mCherry tumors = experiment: Tumor inhibition, EpCAM− MB231-luc-mCherry xenograft; format: in vivo, nude mice; details: 5 mg/kg sc every 3 d (72 h) for 2 wks
Description: as §3

Molecule: CC(C)C[C@H](NC(=O)[C@H](Cc1ccccc1)NC(=O)c1cnccn1)B(O)O [bortezomib]
- killing and T-IC function (colony, mammosphere) (basal-A TNBCs): both killed basal-A TNBCs and also blocked T-IC function
- viable cells after treatment (basal-A TNBCs; 24 hr): ~40%
- penetration into solid tumors (basal-A TNBC tumors): does not penetrate well into solid tumors

Molecule: CC(=O)O[C@H]1C(=O)[C@@]2(C)[C@H]([C@H](OC(=O)c3ccccc3)[C@]3(O)C[C@H](OC(=O)[C@H](O)[C@@H](NC(=O)c4ccccc4)c4ccccc4)C(C)=C1C3(C)C)[C@]1(OC(C)=O)CO[C@@H]1C[C@@H]2O [paclitaxel, reference compound]
- colony formation, EpCAM+ basal-A and luminal lines (breast cancer cell lines [1]): resistant clones emerged
- colony formation, EpCAM− basal-B lines (breast cancer cell lines [1]): reducing colony formation but still resistant clones invariably emerged
- colony formation, cell lines tested (breast cancer cell lines [1]): decreased colony formation in all cells lines
- sphere/mammosphere formation, cell lines tested (breast cancer cell lines [2]): reduced sphere-formation in all

Molecule: AKT1 siRNA: AKT1 siRNA, sense SEQ ID NO: 29, antisense SEQ ID NO: 30 (sense GCUGGAGAACCUCAUGCUG; antisense CAGCAUGAGGUUCUCCAGC; listed as RNA, chemistry not given here) [reference compound]
- AKT1 mRNA and protein knockdown across cell lines (AKT1): comparably knocked down expression in all the cell lines studied

Molecule: PLK1 siRNA: PLK1 siRNA, sense SEQ ID NO: 31, antisense SEQ ID NO: 32 (sense UGAAGAAGAUCACCCUCCUUA; antisense UAAGGAGGGUGAUCUUCUUCA; listed as RNA, chemistry not given here) [reference compound]
- cell proliferation/viability, all cell lines tested [3]: suppressed the growth of all the cell lines
- growth of EpCAM+ MB468 tumors (MB468-luc tumors): continued to grow without significant change; also recorded: neither of which had any anti-tumor activity
- PLK1 siRNA bound to Ago / in the RISC (Argonaute (AGO)): No PLK1 siRNA bound to Ago

B1: AKT1 EpCAM-AsiC: EpCAM aptamer-AKT1 siRNA chimera, sense SEQ ID NO: 23, antisense SEQ ID NO: 24 (nucleic acid)
sense: GCGACUGGUUACCCGGUCGUUGCUGGAGAACCUCAUGCUGTT
antisense: CAGCAUGAGGUUCUCCAGCTT
modifications: chemistry not fully specified
- AKT1 protein silencing by flow cytometry (AKT1; EpCAM-AsiC for 5 days): specific AKT1 protein silencing
- AKT1 mRNA and protein knockdown across cell lines (AKT1; listed as EpCAM-AsiC targeting AKT1): decreased AKT1 mRNA and protein levels
- AKT1 mRNA and protein knockdown across cell lines (AKT1; listed as EpCAM-AsiCs targeting AKT1): only in EpCAM^bright luminal and basal-A TNBCs

B2: GFP EpCAM-AsiC: EpCAM aptamer-GFP siRNA chimera, sense SEQ ID NO: 25, antisense SEQ ID NO: 26 (nucleic acid)
sense: GCGACUGGUUACCCGGUCGUUUGGCUACGUCCAGGAGCGCATT
antisense: UGCGCUCCUGGACGUAGCCTT
modifications: DNA at T, 2'-fluoro at CU, RNA at AG, backbone not given here; EpCAM aptamer fused to sense strand
- eGFP knockdown, BPLER vs BPE ([4]; listed as EpCAM-AsiCs targeting GFP): selectively knocked down expression in BPLER
- eGFP knockdown, BPLER vs BPE ([4]; listed as eGFP EpCAM-AsiCs): selectively knocked down expression only in BPLER
- AKT1 mRNA and protein knockdown across cell lines (AKT1; listed as AsiCs targeting eGFP): had no effect on AKT1 levels
- AKT1 mRNA and protein knockdown across cell lines (AKT1; listed as EpCAM-AsiC targeting GFP): did not effect any of the cell lines
- colony formation, cell lines tested (breast cancer cell lines [1]): had no effect
- sphere/mammosphere formation, cell lines tested (breast cancer cell lines [2]): had no effect
- tumor initiation, EpCAM+ cells (MB468-luc cells): displayed tumors after 5 days; also recorded: displayed increase in tumor initiation
- growth of EpCAM+ MB468 tumors (MB468-luc tumors; listed as GFP AsiC): did not increase in size as much as control untreated mice
- growth of EpCAM+ MB468 tumors (MB468-luc tumors; listed as eGFP-targeting AsiCs): continued to grow
- growth of EpCAM− MB231 tumors (MB231-luc-mCherry tumors; listed as EpCAM-Asic targeting GFP): suppress tumor growth in both EpCAM+ and EpCAM-tumors but didn't eliminate tumors
- growth of EpCAM− MB231 tumors (MB231-luc-mCherry tumors; listed as eGFP-targeting AsiCs): continued to grow
